# Assay results: patent US20240400711A1 (SOUND BIOPHARMACEUTICALS, published 2024)
# Numbering of substitutions follows the chain as printed.
# B1: FTL004-hu-7 (antibody, human IgG1, kappa)
# heavy: not shown
# light: DIVLTQSPASLAVSPGQRATITCRASESVDNFGITFMHWYQQKPGQPPKLLIYRASNLESGVPARFSGSGSRTDFTLTINPVEANDTANYYCQQSSKDPRTFGQGTKLEIKRTVAAPSVFIFPPSDEQLKSGTASVVCLLNNFYPREAKVQWKVDNALQSGNSQESVTEQDSKDSTYSLSSTLTLSKADYEKHKVYACEVTHQGLSSPVTKSFNRGEC
# notes: Fc before engineering; also called FLT004-hu-7; FTL004-hum-7
# B2: FTL004-hu-1 (antibody, human IgG1, kappa)
# heavy: not shown
# light: B1 light
# notes: human IgG1 type constant regions, Fc before engineering; also called FLT004-hu-1; FTL004-hum-1
# B3: FTL004-hu-8 (antibody, human IgG1, kappa, V domains shown)
# VH: QVQLVQSGAEVKKPGASVKVSCKASGYTFTDYNVHWIRQAPGQGLEWIGYFYPRNGATHYAQKFQGRVTMTVDTSTSTAYMELSSLRSEDTAVYYCARGETPGTFPYWGQGTLVTVSS
# VL: DIVLTQSPASLAVSPGQRATITCRASESVDNFGITFMHWYQQKPGQPPKLLIYRASNLESGVPARFSGSGSRTDFTLTINPVEANDTANYYCQQSSKDPRTFGQGTKLEIKR
# notes: also called FLT004-hu-8; FTL004-hum-8
# B4: FTL004-hu-13 (antibody, human IgG1, kappa, V domains shown)
# VH: EVQLVQSGAEVKKPGATVKISCKASGYTFTDYNVHWIQQAPGKGLEWIGYFYPRNGATHYNQKFTGRATLTADTSTDTAYMEISSLRSEDTAVYFCARGETPGTFPYWGQGTLVTVSS
# VL: B3 VL
# notes: also called FLT004-hu-13; FTL004-hum-13
# B5: FTL004-hu-6 (antibody, human IgG1, kappa)
# heavy: not shown
# light: DIQLTQSPSSLSASVGDRVTITCQASESVDNFGITFMHWYQQKPGKAPKLLIYRASNLETGVPSRFSGSGSRTDFTFTISSLQPEDIATYYCQQSSKDPRTFGQGTKLEIKRTVAAPSVFIFPPSDEQLKSGTASVVCLLNNFYPREAKVQWKVDNALQSGNSQESVTEQDSKDSTYSLSSTLTLSKADYEKHKVYACEVTHQGLSSPVTKSFNRGEC
# notes: Fc before engineering; also called FLT004-hu-6; FTL004-hum-6
# B6: FTL004-hu-9 (antibody, human IgG1, kappa, V domains shown)
# VH: B3 VH with A61N, Q65T, V68A, M70L, L83I, Y95F
# VL: EIVLTQSPATLSLSPGERATLSCRASESVDNFGITFMHWYQQKPGQAPRLLIYRASNLESGIPARFSGSGSRTDFTLTISSLEPEDFAVYYCQQSSKDPRTFGQGTKLEIKR
# notes: also called FLT004-hu-9; FTL004-hum-9
# B7: FTL004-hu-3 (antibody, human IgG1, kappa, V domains shown)
# VH: QVQLVQSGSELKKPGASVKVSCKASGYTFTDYNVHWIRQAPGQGLEWIGYFYPRNGATHYNQKFTGRAVLSADTSVSTAYLQISSLKAEDTAVYFCARGETPGTFPYWGQGTLVTVSS
# VL: B6 VL
# notes: also called FLT004-hu-3; FTL004-hum-3
# B8: FTL004-hu-10 (antibody, human IgG1, kappa, V domains shown)
# VH: B3 VH
# VL: B6 VL
# notes: also called FLT004-hu-10; FTL004-hum-10
# B9: FTL004-hu-15 (antibody, human IgG1, kappa, V domains shown)
# VH: B4 VH
# VL: B6 VL
# notes: also called FLT004-hu-15; FTL004-hum-15
# B10: FTL004-hu-14 (antibody, human IgG1, kappa, V domains shown)
# VH: B4 VH with N61A, Q62E, T65Q, A68V, I83L, F95Y
# VL: B3 VL
# notes: also called FLT004-hu-14; FTL004-hum-14
# B11: FTL004-hu-2 (antibody, human IgG1, kappa, V domains shown)
# VH: B7 VH with N61A, K63G, F95Y
# VL: B3 VL
# notes: also called FLT004-hu-2; FTL004-hum-2
# B12: FTL004-hu-4 (antibody, human IgG1, kappa, V domains shown)
# VH: B7 VH with N61A, K63G, F95Y
# VL: B6 VL
# notes: also called FLT004-hu-4; FTL004-hum-4
# B13: FTL004-hu-11 (antibody, human IgG1, kappa, V domains shown)
# VH: B3 VH with A61N, Q65T, V68A, M70L, L83I, Y95F
# VL: DIQLTQSPSSLSASVGDRVTITCRASESVDNFGITFMHWYQQKPGKAPKLLIYRASNLESGVPSRFSGSGSRTDFTLTISSLQPEDFATYYCQQSSKDPRTFGQGTKLEIKR
# notes: also called FLT004-hu-11; FTL004-hum-11
# B14: FTL004-hu-5 (antibody, human IgG1, kappa, V domains shown)
# VH: B7 VH
# VL: B13 VL
# notes: also called FLT004-hu-5; FTL004-hum-5
# B15: FTL004-hu-12 (antibody, human IgG1, kappa, V domains shown)
# VH: B3 VH with A61N, Q65T, V68A, M70L, L83I, Y95F
# VL: B13 VL with R24Q, S60T, L77F, F87I
# notes: also called FLT004-hu-12; FTL004-hum-12
# B16: FTL004-hu-17 (antibody, human IgG1, kappa, V domains shown)
# VH: B4 VH
# VL: B13 VL
# notes: also called FLT004-hu-17; FTL004-hum-17
# B17: FTL004-hu-18 (antibody, human IgG1, kappa, V domains shown)
# VH: B4 VH
# VL: B13 VL with R24Q, S60T, L77F, F87I
# notes: also called FLT004-hu-18; FTL004-hum-18
# B18: FTL004-hu-16 (antibody, human IgG1, kappa, V domains shown)
# VH: B4 VH with N61A, Q62E, T65Q, A68V, I83L, F95Y
# VL: B6 VL
# notes: also called FLT004-hu-16; FTL004-hum-16
# B19: FTL004-7 (antibody, human IgG1, kappa)
# heavy: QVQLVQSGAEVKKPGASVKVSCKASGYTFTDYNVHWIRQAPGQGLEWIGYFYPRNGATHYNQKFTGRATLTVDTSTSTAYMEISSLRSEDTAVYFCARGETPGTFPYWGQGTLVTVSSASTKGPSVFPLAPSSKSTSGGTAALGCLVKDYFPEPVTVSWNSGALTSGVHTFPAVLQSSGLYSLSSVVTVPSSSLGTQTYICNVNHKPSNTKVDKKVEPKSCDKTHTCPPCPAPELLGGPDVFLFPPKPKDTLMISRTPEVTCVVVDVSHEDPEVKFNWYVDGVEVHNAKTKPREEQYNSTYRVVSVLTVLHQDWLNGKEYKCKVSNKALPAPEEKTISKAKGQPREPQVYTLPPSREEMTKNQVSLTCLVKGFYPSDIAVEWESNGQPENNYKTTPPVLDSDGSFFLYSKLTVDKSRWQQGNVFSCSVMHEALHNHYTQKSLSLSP
# light: B1 light
# notes: copies: 2 + 2
# B20: FTL004-6 (antibody, human IgG1, kappa)
# heavy: not shown
# light: B5 light
# Biological target: T1, recombinant extracellular domain of CD38 (human, UniProt P28907 43-300)
# T1 construct: also called CD38 extracellular domain; AtaGenix ATMP00140HU
# Assay: Biacore SPR
Binder,Kd,koff,kon
B1,2.4 nM,0.000766 s⁻¹,320000 M⁻¹ s⁻¹
B2,1.42 nM,,
B3,8.39 nM,0.00257 s⁻¹,307000 M⁻¹ s⁻¹
B4,2.78 nM,0.000853 s⁻¹,307000 M⁻¹ s⁻¹
B5,2.44 nM,0.000677 s⁻¹,277000 M⁻¹ s⁻¹
B6,3.04 nM,0.000699 s⁻¹,230000 M⁻¹ s⁻¹
B7,1.5 nM,0.00052 s⁻¹,347000 M⁻¹ s⁻¹
B8,14.9 nM,0.00241 s⁻¹,162000 M⁻¹ s⁻¹
B9,3.66 nM,0.000784 s⁻¹,214000 M⁻¹ s⁻¹
B10,22.4 nM,0.00466 s⁻¹,208000 M⁻¹ s⁻¹
B11,8.3 nM,0.00285 s⁻¹,344000 M⁻¹ s⁻¹
B12,10.5 nM,0.00313 s⁻¹,297000 M⁻¹ s⁻¹
B13,2.87 nM,0.000848 s⁻¹,296000 M⁻¹ s⁻¹
B14,1.65 nM,0.000686 s⁻¹,415000 M⁻¹ s⁻¹
B15,3.54 nM,0.00083 s⁻¹,234000 M⁻¹ s⁻¹
B16,3.09 nM,0.000848 s⁻¹,275000 M⁻¹ s⁻¹
B17,4.16 nM,0.000788 s⁻¹,189000 M⁻¹ s⁻¹
B18,25.2 nM,0.00459 s⁻¹,182000 M⁻¹ s⁻¹

# Biological target: CD38 on CD38-positive cells (human, UniProt P28907 1-300)
# Assay: cell-based or functional assay
Binder,"Rate of apoptosis (%), Daudi cells","Rate of apoptosis (%), Raji cells","Rate of apoptosis (%), Romas cells","Rate of apoptosis (%), SU-DHL-6 cells"
B1,34.5%,12.1%,31.1%,19.9%
B2,36.9%,14.8%,62.7%,20.2%
B19,37.4%,17.8%,60.3%,20.3%
B5,29.3%,13.8%,63.6%,16.8%
B20,36%,13.9%,57%,15.1%

# Biological target: FcγRIIIa(F176) (UniProt P08637 17-208, limits assumed)
# Sequence (P08637 17-208 limits assumed): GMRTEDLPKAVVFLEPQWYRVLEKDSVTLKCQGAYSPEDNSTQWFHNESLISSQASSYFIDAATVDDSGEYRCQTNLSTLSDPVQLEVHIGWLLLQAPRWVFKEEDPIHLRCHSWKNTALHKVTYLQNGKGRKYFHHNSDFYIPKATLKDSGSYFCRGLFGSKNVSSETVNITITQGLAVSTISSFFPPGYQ
# Assay: kinetics, FcγRIIIa as ligand, antibody as analyte
Binder,Kd,koff,kon
B19,22.7 nM,0.0136 s⁻¹,599000 M⁻¹ s⁻¹

# Biological target: FcγRIIIa (V176) (UniProt P08637 17-208, limits assumed)
# Sequence (P08637 17-208 F176V limits assumed): as the sequence (P08637 17-208 limits assumed) above, with F160V counted along it
# Assay: kinetics, FcγRIIIa as ligand, antibody as analyte
Binder,Kd,koff,kon
B19,36.9 nM,0.021 s⁻¹,570000 M⁻¹ s⁻¹

# Biological target: T2, human CD38 antigen protein (coated in ELISA) (human, UniProt P28907 43-300, limits assumed)
# T2 construct: also called the antigen CD38; human antigen
# Assay: ELISA on coated CD38 antigen, OD (450 nm) against antibody concentration (ng/ml) [Plate3]
row,Binder,EC50 (read off the curve)
1,B8,~0.3 µg/mL
2,B10,~0.5 µg/mL
